For one substance, % Removal and % Removal (run of 3 hours) results are on record in patent US20240399042A1.

Test [1] addresses Ebola-Zaire-sGP: Soluble glycoprotein (sGP) released from infected cells (Ebola, species Zaire ebolavirus) (UniProt P60170).

Chain of Ebola-Zaire-sGP: Soluble glycoprotein (sGP) released from infected cells (Ebola, species Zaire ebolavirus) (P60170 33-324 limits assumed): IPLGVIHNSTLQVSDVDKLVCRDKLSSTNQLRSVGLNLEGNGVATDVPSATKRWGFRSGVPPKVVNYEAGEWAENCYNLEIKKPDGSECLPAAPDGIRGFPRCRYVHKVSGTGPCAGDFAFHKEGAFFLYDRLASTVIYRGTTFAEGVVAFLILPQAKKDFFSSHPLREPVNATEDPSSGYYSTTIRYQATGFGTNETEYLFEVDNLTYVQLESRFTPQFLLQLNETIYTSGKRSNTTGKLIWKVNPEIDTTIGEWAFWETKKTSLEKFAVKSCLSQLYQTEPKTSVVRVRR
Chain of Galanthus nivalis agglutinin (GNA) (P30617 24-128 limits assumed): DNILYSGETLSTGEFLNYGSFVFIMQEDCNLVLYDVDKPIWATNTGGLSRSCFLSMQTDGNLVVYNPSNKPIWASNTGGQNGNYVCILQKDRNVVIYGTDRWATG

Consider “Galanthus nivalis agglutinin (GNA) (from UniProt P30617 24-128)”, for which, in test [1], the % Removal at 6 hours worked out at 97%. This substance also gave a % Removal (run of 3 hours) with Marburg-GP (Marburg) of 60%.
